The target in series [1] is PlxnA1_(1-10), full extracellular segment of mouse PlxnA1 (domains 1-10) (mouse) (UniProt P70206). Put plainly: AUC; sedimentation velocity, 40,000 rpm, absorbance at 280 nm, c(s) analysis; protein at 28.1 μM (4 mg/ml).
Series [2] deals with PlxnA2 extracellular-transmembrane segment fused to mTFP1 (donor) or mVenus (acceptor) (mouse). The series is described as follows: FRET or BRET; FRET-FLIM in live COS-7 cells co-expressing mTFP1- and mVenus-fused PlxnA2; before Sema6A stimulation. (Bioluminescence resonance energy transfer reports proximity on the nanometre scale.)
Series [3] addresses T1, PlxnA2_(1-2), PlxnA2 sema-PSI1 domains (mouse, UniProt P70207 31-561).
T1 construct: Plexin-A2, mouse, sema and PSI1 domains (domains 1-2)
T1 sequence: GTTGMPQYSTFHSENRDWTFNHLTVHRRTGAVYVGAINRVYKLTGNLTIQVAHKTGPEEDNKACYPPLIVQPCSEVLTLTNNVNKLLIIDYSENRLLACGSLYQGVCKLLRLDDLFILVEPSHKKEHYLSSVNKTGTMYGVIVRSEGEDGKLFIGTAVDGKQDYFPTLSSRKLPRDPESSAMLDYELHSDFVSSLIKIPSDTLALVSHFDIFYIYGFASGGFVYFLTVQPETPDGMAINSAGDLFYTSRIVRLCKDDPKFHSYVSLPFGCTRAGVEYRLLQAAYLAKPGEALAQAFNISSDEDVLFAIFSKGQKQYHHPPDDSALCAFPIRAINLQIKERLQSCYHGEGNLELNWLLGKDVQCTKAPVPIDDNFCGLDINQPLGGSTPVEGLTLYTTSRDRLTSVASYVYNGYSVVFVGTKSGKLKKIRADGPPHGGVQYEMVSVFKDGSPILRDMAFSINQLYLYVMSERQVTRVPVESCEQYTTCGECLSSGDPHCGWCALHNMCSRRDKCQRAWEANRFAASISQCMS
Put plainly: SPR; equilibrium experiments, Biacore T200, 25°C, 10 mM HEPES pH 7.5, 150 mM NaCl, 0.005% Tween 20; biotinylated PlxnA2_(4-5) (wild type or mutant) on streptavidin chip, PlxnA2_(1-2) as analyte; 1:1 Langmuir model. To be noted: both partners purified. Background: Surface plasmon resonance follows binding to a sensor surface in real time, without labels.

Series [4] concerns the molecule itself. The series is described as follows: crystal structure; crystals of full extracellular segments; intermolecular plexin-plexin interface in the crystal; 4 to 10 Å.

These results are taken from publication PMC4980550, “Structural Basis for Plexin Activation and Regulation” (Neuron, 2016).

“And” between values parts separate entries of the source, which are not always exact repeats. Identical values can stand only once.

With “PlxnA1_(1-10), full extracellular segment of mouse PlxnA1 (domains 1-10) (from UniProt P70206 28-1242) (domain or fragment)”, the stoichiometry N in series [1] is 2 and 3 and 4. “PlxnA2 extracellular-transmembrane segment fused to mTFP1 (donor) or mVenus (acceptor) (receptor)” yielded an average fraction of interacting donor (fD) in series [2] of 0.11.

B1: PlxnA2_(4-5), PlxnA2 PSI2-IPT2 domains (domain or fragment, mouse)
chain: NCSAHQLCLSCVNSAFRCHWCKYRNLCTHDPTTCSFQEGRINVSEDCPQLVPTEEILIPVGEVKPITLKARNLPQPQSGQRGYECVLSIQGAVHRVPALRFNSSSVQCQNSSYQYDGMDISNLAVDFAVVWNGNFIIDNPQDLKVHLYK
modifications: enzymatically biotinylated with BirA via an engineered C-terminal tag
notes: Plexin-A2, mouse, PSI2 and IPT2 domains (domains 4-5); The crystallised PlxnA2_(4-5) (PDB 5L74) was made in HEK293S cells; also called wild-type PlxnA2_(4-5); not shown: biotinylation tag (BirA), C-terminal, kept
Molecule B1 showed a Kd in series [3] of 20.9 ± 0.38 µM.

B2: PlxnA4_(1-10), full extracellular segment of mouse PlxnA4 (domain or fragment, UniProt Q80UG2 24-1236, looked up)
chain: TLLPRQPPQLSQKPSFVTFRGEPAEGFNHLVVDERTGHIYLGAVNRIYKLSSDLKVLVTHQTGPDEDNPKCYPPRIVQTCNEPLASTNNVNKMLLIDYKENRLIACGSLYQGICKLLRLEDLFKLGEPFHKKEHYLSGVNESGSVFGVIVSYSNFDDKLFIATAVDGKPEYFPTISSRKLTKNSEADGMFAYVFHDEFVASMIKIPSDTFTVIPDFDIYYVYGFSSGNFVYFLTLQPEMVSPPGSTTKEQVYTSKLVRLCKEDTAFNSYVEVPIGCERNGVEYRLLQAAYLSKAGAVLGRTLGVRPDDDLLFTVFSKGQKRKMKSLDESALCIFILKQINDRIKDRLQSCYRGEGTLDLAWLKVKDIPCSSALLTIDDNFCGLDMNAPLGVSEMVRGIPVFTEDRDRMTSVIAYVYKNHSLAFVGTKSGKLKKIRVDGPKGNALQYETVQVVDSGPVLRDMAFSKDHEQLYIMSERQLTRVPVESCGQYRSCGECLGSGDPHCGWCVLHNTCTRKERCERSREPRRFASEMKQCVRLTVHPNNISVSQYNVLLVLETYNVPELSAGVNCTFEDLSEMDGLVIGNQIQCYSPAAKEVPRIITENGDHHVVQLQLKSKETGMTFASTSFVFYNCSVHNSCLSCVESPYRCHWCKYRHVCTHDPNTCSFQEGRVKLPEDCPQLLRVDKILVPVEVIKPITLKAKNLPQPQSGQRGYECILNIQGIEQRVPALRFNSSSVQCQNTSYSYEGMEINNLPVELTVVWNGHFNIDNPAQNKVYLYKCGAMRESCGLCLKADPDFECGWCQSPGQCTLRQHCPAHESRWLELSGANSKCTNPRITEIIPVTGPREGGTKVTIRGENLGLEFRDIASHVKVAGVECSPLVDGYIPAEQIVCEMGEAKPSQHAGFVEICVAVCRPEFMARSSQLYYFMTLTLADLKPNRGPMSGGTQVTITGTNLNAGSNVVVMFGSQPCLFHRRSPSYIICNTTSSEEVLDMKVTVQVDRARIRQDLVFQYVEDPTIVRIEPEWSIVSGNTPIAVWGTHLDLIQNPQIRAKHGGKEHINICEVLNATEMTCQAPALALGPDHQSDLTERPEEFGFILDNVQSLLILNKTNFTYYPNPVFEAFSPSGILELKPGTPIILKGKNLIPPVAGGNVKLNYTVLVGEKPCTVTVSDVQLLCESPNLIGRHKVMARVGGMEYSPGMVYIAPDSPLSLP
notes: Plexin-A4, mouse, full extracellular segment (domains 1-10); also called PlxnA4 full ectodomain
B2: the binding result in series [4] is on record as “binds”.

B3: PlxnA2_(1-10), full extracellular segment of mouse PlxnA2 (domain or fragment, UniProt P70207 35-1237, looked up)
chain: MPQYSTFHSENRDWTFNHLTVHRRTGAVYVGAINRVYKLTGNLTIQVAHKTGPEEDNKACYPPLIVQPCSEVLTLTNNVNKLLIIDYSENRLLACGSLYQGVCKLLRLDDLFILVEPSHKKEHYLSSVNKTGTMYGVIVRSEGEDGKLFIGTAVDGKQDYFPTLSSRKLPRDPESSAMLDYELHSDFVSSLIKIPSDTLALVSHFDIFYIYGFASGGFVYFLTVQPETPDGMAINSAGDLFYTSRIVRLCKDDPKFHSYVSLPFGCTRAGVEYRLLQAAYLAKPGEALAQAFNISSDEDVLFAIFSKGQKQYHHPPDDSALCAFPIRAINLQIKERLQSCYHGEGNLELNWLLGKDVQCTKAPVPIDDNFCGLDINQPLGGSTPVEGLTLYTTSRDRLTSVASYVYNGYSVVFVGTKSGKLKKIRADGPPHGGVQYEMVSVFKDGSPILRDMAFSINQLYLYVMSERQVTRVPVESCEQYTTCGECLSSGDPHCGWCALHNMCSRRDKCQRAWEANRFAASISQCMSLEVHPNSISVSDHSRLLSLVVNDAPNLSEGIACAFGNLTEVEGQVSGSQVICISPGPKDVPVIPLDQDWFGLELQLRSKETGKIFVSTEFKFYNCSAHQLCLSCVNSAFRCHWCKYRNLCTHDPTTCSFQEGRINVSEDCPQLVPTEEILIPVGEVKPITLKARNLPQPQSGQRGYECVLSIQGAVHRVPALRFNSSSVQCQNSSYQYDGMDISNLAVDFAVVWNGNFIIDNPQDLKVHLYKCAAQRESCGLCLKADHKFECGWCSGERRCTLHQHCPSTSSPWLDWSSHNVKCSNPQITEILTVSGPPEGGTRVTIHGVNLGLDFSEIAHHVQVAGVPCTPIPGEYIIAEQIVCEMGHAVIGTTSGPVRLCIGECKPEFMTKSHQQYTFVNPSVLSLSPIRGPESGGTMVTITGHYLGAGSSVAVYLGNQTCEFYGRSMNEIVCVSPPSSNGLGPVPVSVSVDRARVDSSLQFEYIDDPRVQRIEPEWSITSGHTPLTITGFNLDVIQEPRVRVKFNGKESVNVCTVVNTTTLTCLAPSLTSDYRPGLDTVERPDEFGFLFNNVQSLLIYNDTKFIYYPNPTFELLSPTGILDQKPGSPIILKGKNLCPPASGGAKLNYTVMIGETPCTVTVSETQLLCEPPNLTGQHKVMVHVGGMVFSPGSVSVISDSLLTLP
notes: Plexin-A2, mouse, full extracellular segment (domains 1-10); also called PlxnA2 full ectodomain
Consider B3, for which, in series [4], the binding result is recorded as “binds”.

One may read the stoichiometry N as the number of molecules, sites or subunits per partner or assembly. A word on the Kd: it is the free concentration of one partner at which half of the binding sites on the other are occupied at equilibrium, for simple one-to-one binding. A lower Kd goes with higher affinity.
